Consider 1 molecule from patent publication US20040213795A1.

In this assay the target is Murine PD-1 fusion protein (mouse) (UniProt Q02242). Kind of assay: SPR (BIAcore 3000), murine PD-1 fusion immobilized on CM5 chip, antibody 25 nM to 500 nM in flow. On the technique in general: Surface plasmon resonance follows binding to a sensor surface in real time, without labels.
Murine PD-1 fusion protein (mouse), sequence (Q02242 25-167): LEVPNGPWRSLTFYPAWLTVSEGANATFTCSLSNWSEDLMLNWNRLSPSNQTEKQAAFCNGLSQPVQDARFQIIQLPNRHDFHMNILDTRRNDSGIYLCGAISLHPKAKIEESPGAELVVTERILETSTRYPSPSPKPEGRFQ

B1: Anti-mouse PD1 antibody J43 (antibody, from another filing, V domains shown)
VH: EVRLLESGGGLVKPEGSLKLSCVASGFTFSDYFMSWVRQAPGKGLEWVAHIYTKSYNYATYYSGSVKGRFTISRDDSRSMVYLQMNNLRTEDTATYYCTRDGSGYPSLDFWGQGTQVTVSS
VL: YELTQPPSASVNVGETVKITCSGDQLPKYFADWFHQRSDQTILQVIYDDNKRPSGIPERISGSSSGTTATLTIRDVRAEDEGDYYCFSGYVDSDSKLYVFGSGTQLTVLG
As for B1, the Ka is 2.6e+06 M⁻¹ and the dissociation constant Kd (as a rule, the constant that tells how readily two partners part at equilibrium) is 380 nM.
